{
  "source": "paper doi:10.1101/2020.09.09.290171",
  "about": "(bioRxiv, 2020)",
  "target": "T1, recombinant NRPD1 fused at its C-terminus to a FLAG epitope tag (Arabidopsis thaliana, UniProt Q9LQ02 1-1453)",
  "T1 sequence": "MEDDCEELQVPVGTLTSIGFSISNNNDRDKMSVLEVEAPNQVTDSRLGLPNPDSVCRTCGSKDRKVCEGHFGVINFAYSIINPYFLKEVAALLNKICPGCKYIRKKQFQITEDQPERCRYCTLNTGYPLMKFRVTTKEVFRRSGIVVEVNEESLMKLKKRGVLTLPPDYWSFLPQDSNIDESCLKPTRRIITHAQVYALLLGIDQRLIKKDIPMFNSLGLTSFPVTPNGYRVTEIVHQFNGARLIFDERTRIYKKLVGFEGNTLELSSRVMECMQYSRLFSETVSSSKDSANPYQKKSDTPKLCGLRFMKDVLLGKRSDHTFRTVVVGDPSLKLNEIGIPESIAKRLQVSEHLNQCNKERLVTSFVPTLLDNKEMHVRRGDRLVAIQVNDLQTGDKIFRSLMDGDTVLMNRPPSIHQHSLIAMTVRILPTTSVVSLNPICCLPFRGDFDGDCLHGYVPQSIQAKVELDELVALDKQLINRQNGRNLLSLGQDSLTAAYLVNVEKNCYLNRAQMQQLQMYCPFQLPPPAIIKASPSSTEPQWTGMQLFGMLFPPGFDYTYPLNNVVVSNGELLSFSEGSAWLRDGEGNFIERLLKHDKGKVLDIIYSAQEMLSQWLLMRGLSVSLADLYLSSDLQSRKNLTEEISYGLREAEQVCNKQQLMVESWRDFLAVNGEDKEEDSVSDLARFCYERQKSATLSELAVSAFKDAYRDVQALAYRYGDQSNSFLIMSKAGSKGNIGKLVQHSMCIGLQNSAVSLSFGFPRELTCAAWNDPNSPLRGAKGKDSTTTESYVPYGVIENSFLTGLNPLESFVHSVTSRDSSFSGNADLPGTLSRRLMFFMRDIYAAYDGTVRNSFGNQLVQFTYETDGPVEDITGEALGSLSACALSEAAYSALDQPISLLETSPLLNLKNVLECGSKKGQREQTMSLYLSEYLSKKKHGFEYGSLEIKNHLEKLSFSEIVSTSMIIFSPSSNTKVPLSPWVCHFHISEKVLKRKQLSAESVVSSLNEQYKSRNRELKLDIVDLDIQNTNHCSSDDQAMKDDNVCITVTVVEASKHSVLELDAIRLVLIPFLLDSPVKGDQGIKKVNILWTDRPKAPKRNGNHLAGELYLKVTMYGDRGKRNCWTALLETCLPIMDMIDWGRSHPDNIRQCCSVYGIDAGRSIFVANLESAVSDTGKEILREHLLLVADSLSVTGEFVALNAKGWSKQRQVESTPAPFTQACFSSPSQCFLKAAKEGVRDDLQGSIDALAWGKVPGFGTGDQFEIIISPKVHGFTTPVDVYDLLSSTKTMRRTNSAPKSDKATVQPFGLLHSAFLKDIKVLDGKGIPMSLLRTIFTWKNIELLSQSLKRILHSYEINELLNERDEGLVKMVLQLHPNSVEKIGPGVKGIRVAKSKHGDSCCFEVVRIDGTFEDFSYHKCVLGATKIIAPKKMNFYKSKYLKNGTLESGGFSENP",
  "test": "co-IP",
  "data": [
    {"binder": "recombinant RDR2 (RNA-DEPENDENT RNA POLYMERASE 2), wild type, with N-terminal V5 epitope and 6xHis tags (enzyme) MVSETTTNRSTVKISNVPQTIVADELLRFLELHLGEDTVFALEIPTTRDNWKPRDFARVQFTTLEVKSRAQLLSSQSKLLFKTHNLRLSEAYDDIIPRPVDPRKRLDDIVLTVGFPESDEKRFCALEKWDGVRCWILTEKRRVEFWVWESGDCYKIEVRFEDIIETLSCCVNGDASEIDAFLLKLKYGPKVFKRVTVHIATKFKSDRYRFCKEDFDFMWIRTTDFSGSKSIGTSTCFCLEVHNGSTMLDIFSGLPYYREDTLSLTYVDGKTFASAAQIVPLLNAAILGLEFPYEILFQLNALVHAQKISLFAASDMELIKILRGMSLETALVILKKLHQQSSICYDPVFFVKTQMQSVVKKMKHSPASAYKRLTEQNIMSCQRAYVTPSKIYLLGPELETANYVVKNFAEHVSDFMRVTFVEEDWSKLPANALSVNSKEGYFVKPSRTNIYNRVLSILGEGITVGPKRFEFLAFSASQLRGNSVWMFASNEKVKAEDIREWMGCFRKIRSISKCAARMGQLFSASRQTLIVRAQDVEQIPDIEVTTDGADYCFSDGIGKISLAFAKQVAQKCGLSHVPSAFQIRYGGYKGVIAVDRSSFRKLSLRDSMLKFDSNNRMLNVTRWTESMPCFLNREIICLLSTLGIEDAMFEAMQAVHLSMLGNMLEDRDAALNVLQKLSGENSKNLLVKMLLQGYAPSSEPYLSMMLRVHHESQLSELKSRCRILVPKGRILIGCMDEMGILEYGQVYVRVTLTKAELKSRDQSYFRKIDEETSVVIGKVVVTKNPCLHPGDIRVLDAIYEVHFEEKGYLDCIIFPQKGERPHPNECSGGDLDGDQFFVSWDEKIIPSEMDPPMDYAGSRPRLMDHDVTLEEIHKFFVDYMISDTLGVISTAHLVHADRDPEKARSQKCLELANLHSRAVDFAKTGAPAEMPYALKPREFPDFLERFEKPTYISESVFGKLYRAVKSSLAQRKPEAESEDTVAYDVTLEEAGFESFIETAKAHRDMYGEKLTSLMIYYGAANEEEILTGILKTKEMYLARDNRRYGDMKDRITLSVKDLHKEAMGWFEKSCEDEQQKKKLASAWYYVTYNPNHRDEKLTFLSFPWIVGDVLLDIKAENAQRQSVEEKTSGLVSI", "values": [
      {"measurement": "binding result", "result": "binds"}
    ]}
  ]
}
